We go through five variants from IntAct's records for PubMed 25910212.

To fix the notation:
B1: Keratin, type II cytoskeletal 2 epidermal (Homo sapiens), P35908 (parent)
chain: MSCQISCKSRGRGGGGGGFRGFSSGSAVVSGGSRRSTSSFSCLSRHGGGGGGFGGGGFGSRSLVGLGGTKSISISVAGGGGGFGAAGGFGGRGGGFGGGSSFGGGSGFSGGGFGGGGFGGGRFGGFGGPGGVGGLGGPGGFGPGGYPGGIHEVSVNQSLLQPLNVKVDPEIQNVKAQEREQIKTLNNKFASFIDKVRFLEQQNQVLQTKWELLQQMNVGTRPINLEPIFQGYIDSLKRYLDGLTAERTSQNSELNNMQDLVEDYKKKYEDEINKRTAAENDFVTLKKDVDNAYMIKVELQSKVDLLNQEIEFLKVLYDAEISQIHQSVTDTNVILSMDNSRNLDLDSIIAEVKAQYEEIAQRSKEEAEALYHSKYEELQVTVGRHGDSLKEIKIEISELNRVIQRLQGEIAHVKKQCKNVQDAIADAEQRGEHALKDARNKLNDLEEALQQAKEDLARLLRDYQELMNVKLALDVEIATYRKLLEGEECRMSGDLSSNVTVSVTSSTISSNVASKAAFGGSGGRGSSSGGGYSSGSSSYGSGGRQSGSRGGSGGGGSISGGGYGSGGGSGGRYGSGGGSKGGSISGGGYGSGGGKHSSGGGSRGGSSSGGGYGSGGGGSSSVKGSSGEAFGSSVTFSFR
B2: Keratin, type II cytoskeletal 6A (Homo sapiens), P02538 (parent)
chain: MASTSTTIRSHSSSRRGFSANSARLPGVSRSGFSSVSVSRSRGSGGLGGACGGAGFGSRSLYGLGGSKRISIGGGSCAISGGYGSRAGGSYGFGGAGSGFGFGGGAGIGFGLGGGAGLAGGFGGPGFPVCPPGGIQEVTVNQSLLTPLNLQIDPTIQRVRAEEREQIKTLNNKFASFIDKVRFLEQQNKVLETKWTLLQEQGTKTVRQNLEPLFEQYINNLRRQLDSIVGERGRLDSELRGMQDLVEDFKNKYEDEINKRTAAENEFVTLKKDVDAAYMNKVELQAKADTLTDEINFLRALYDAELSQMQTHISDTSVVLSMDNNRNLDLDSIIAEVKAQYEEIAQRSRAEAESWYQTKYEELQVTAGRHGDDLRNTKQEIAEINRMIQRLRSEIDHVKKQCANLQAAIADAEQRGEMALKDAKNKLEGLEDALQKAKQDLARLLKEYQELMNVKLALDVEIATYRKLLEGEECRLNGEGVGQVNISVVQSTVSSGYGGASGVGSGLGLGGGSSYSYGSGLGVGGGFSSSSGRAIGGGLSSVGGGSSTIKYTTTSSSSRKSYKH

In the first test the parent is B1. Particulars: with KRT15, P19012.
Target sequence in this assay (P19012 whole entry): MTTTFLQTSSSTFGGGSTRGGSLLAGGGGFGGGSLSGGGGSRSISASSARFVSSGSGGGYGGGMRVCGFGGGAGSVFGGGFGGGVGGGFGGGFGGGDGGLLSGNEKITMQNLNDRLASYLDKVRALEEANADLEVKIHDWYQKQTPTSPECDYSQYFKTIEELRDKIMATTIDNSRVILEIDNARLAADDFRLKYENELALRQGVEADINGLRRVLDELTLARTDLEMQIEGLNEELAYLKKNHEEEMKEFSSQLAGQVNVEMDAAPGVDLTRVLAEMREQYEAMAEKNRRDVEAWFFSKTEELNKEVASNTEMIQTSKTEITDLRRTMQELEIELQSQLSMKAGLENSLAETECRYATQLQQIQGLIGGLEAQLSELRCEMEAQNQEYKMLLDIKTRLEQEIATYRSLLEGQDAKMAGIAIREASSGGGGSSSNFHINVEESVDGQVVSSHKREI
For the variant G219D, the “effect of a mutation on the interaction” value is reported as “with no effect”.

A further test covers variants of B1. Particulars: with KRT40, Q6A162.
Target sequence in this assay (Q6A162 whole entry): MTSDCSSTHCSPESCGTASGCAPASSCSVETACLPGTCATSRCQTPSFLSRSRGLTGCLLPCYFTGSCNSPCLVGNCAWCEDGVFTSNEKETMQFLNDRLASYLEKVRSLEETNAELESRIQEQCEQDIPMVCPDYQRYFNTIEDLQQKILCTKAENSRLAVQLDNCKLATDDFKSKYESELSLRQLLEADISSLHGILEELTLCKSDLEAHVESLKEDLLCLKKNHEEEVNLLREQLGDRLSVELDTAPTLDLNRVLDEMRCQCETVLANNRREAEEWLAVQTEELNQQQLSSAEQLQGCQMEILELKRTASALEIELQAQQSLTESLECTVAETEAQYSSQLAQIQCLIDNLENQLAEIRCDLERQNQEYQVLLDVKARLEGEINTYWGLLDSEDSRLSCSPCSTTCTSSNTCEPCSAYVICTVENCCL
G219D: the “effect of a mutation on the interaction” value is “with no effect”.
Still for that read-out and setting: under L484P stands “disrupting interaction strength”.

In the next test the parent is B1. The following applies: with KRT19, P08727.
Sequence of KRT19, P08727 (P08727 whole entry): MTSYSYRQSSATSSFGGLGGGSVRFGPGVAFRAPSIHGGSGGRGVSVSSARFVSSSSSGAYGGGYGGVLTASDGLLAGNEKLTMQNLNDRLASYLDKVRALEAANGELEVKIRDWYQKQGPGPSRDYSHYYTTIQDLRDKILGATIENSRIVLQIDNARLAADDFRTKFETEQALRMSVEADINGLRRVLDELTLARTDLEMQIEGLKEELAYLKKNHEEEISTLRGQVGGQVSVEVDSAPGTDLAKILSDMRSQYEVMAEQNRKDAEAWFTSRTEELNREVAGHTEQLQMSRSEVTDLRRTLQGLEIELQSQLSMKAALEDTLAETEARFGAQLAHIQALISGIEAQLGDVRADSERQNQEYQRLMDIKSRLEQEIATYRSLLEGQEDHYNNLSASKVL
For the variant G219D, the “effect of a mutation on the interaction” value was “with no effect”.
On the same count and under the same terms, under N186K stands “with no effect”; under I477N, “disrupting interaction strength”.
Still for that read-out and setting: under L484P stands “with no effect”.

The next test covers variants of B1. The following applies: with k1h1_human KRT31, Q15323.
Target sequence in this assay (Q15323 whole entry): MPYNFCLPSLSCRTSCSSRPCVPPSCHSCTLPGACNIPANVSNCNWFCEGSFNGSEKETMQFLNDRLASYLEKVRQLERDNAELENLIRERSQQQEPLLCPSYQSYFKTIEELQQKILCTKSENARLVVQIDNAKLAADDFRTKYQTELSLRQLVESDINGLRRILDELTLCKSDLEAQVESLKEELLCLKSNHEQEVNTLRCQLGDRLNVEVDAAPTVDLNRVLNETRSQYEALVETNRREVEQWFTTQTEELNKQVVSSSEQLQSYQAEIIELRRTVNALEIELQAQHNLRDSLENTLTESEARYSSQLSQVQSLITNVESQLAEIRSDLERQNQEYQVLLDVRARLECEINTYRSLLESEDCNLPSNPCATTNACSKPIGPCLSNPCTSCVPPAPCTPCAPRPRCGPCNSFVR
Turning to G219D, the “effect of a mutation on the interaction” value was “with no effect”.
The same measure, in the same setting: under I477N stands “with no effect”; under L484P, “with no effect”.

In the next test the parent is B1. The following applies: with KRT15, P19012. The source holds these as a separate data set.
Target sequence in this assay (P19012 whole entry): as the sequence (P19012 whole entry) above
As to N186K, the “effect of a mutation on the interaction” value is reported as “with no effect”.
The same measure, in the same setting: under I477N stands “with no effect”; under L484P, “with no effect”.

The variants in a further test derive from B1. Particulars: with KRT40, Q6A162. The source holds these as a separate data set.
Target sequence in this assay (Q6A162 whole entry): as the sequence (Q6A162 whole entry) above
With N186K, the “effect of a mutation on the interaction” value is “with no effect”.
On the same count and under the same terms, under I477N stands “disrupting interaction strength”; under L484P, “with no effect”.

In another test the parent is B1. The following applies: with k1h1_human KRT31, Q15323. The source holds these as a separate data set.
Target sequence in this assay (Q15323 whole entry): as the sequence (Q15323 whole entry) above
As for N186K, the “effect of a mutation on the interaction” value is given as “with no effect”.
As for I477N, the “effect of a mutation on the interaction” value is given as “disrupting interaction strength”.
L484P: the “effect of a mutation on the interaction” value is reported as “disrupting interaction strength”.

The next test covers variants of B2. Particulars: with KRT15, P19012.
Target sequence in this assay (P19012 whole entry): as the sequence (P19012 whole entry) above
In the case of MASTSTTIRSHSSSRRGFSANSARLPGVSRSGFSSVSVSRSRGSGGLGGACGGAGFGSRSLYGLGGSKRISIGGGSCAISGGYGSRAGGSYGFGGAGSGFGFGGGAGIGFGLGGGAGLAGGFGGPGFPVCPPGGIQEVTVNQSLLTPLNLQIDPTIQRVRAEEREQIKTLKNKFASFIDKVRFLEQQNKVLETKWTLLQEQGTKTVRQNLEPLFEQYINNLRRQLDSIVGERGRLDSELRGMQDLVEDFKNKYEDEINKRTAAENEFVTLKKDVDAAYMNKVELQAKADTLTDEINFLRALYDAELSQMQTHISDTSVVLSMDNNRNLDLDSIIAEVKAQYEEIAQRSRAEAESWYQTKYEELQVTAGRHGDDLRNTKQEIAEINRMIQRLRSEIDHVKKQCANLQAAIADAEQRGEMALKDAKNKLEGLEDALQKAKQDLARLLKEYQELMNVKLALDVEIATYRKLLEGEECRLNGEGVGQVNISVVQSTVSSGYGGASGVGSGLGLGGGSSYSYGSGLGVGGGFSSSSGRAIGGGLSSVGGGSSTIKYTTTSSSSRKSYKH [N171K], the “effect of a mutation on the interaction” value is reported as “with no effect”.

The variants in a further test derive from B2. The following applies: with KRT40, Q6A162.
Target sequence in this assay (Q6A162 whole entry): as the sequence (Q6A162 whole entry) above
Consider MASTSTTIRSHSSSRRGFSANSARLPGVSRSGFSSVSVSRSRGSGGLGGACGGAGFGSRSLYGLGGSKRISIGGGSCAISGGYGSRAGGSYGFGGAGSGFGFGGGAGIGFGLGGGAGLAGGFGGPGFPVCPPGGIQEVTVNQSLLTPLNLQIDPTIQRVRAEEREQIKTLKNKFASFIDKVRFLEQQNKVLETKWTLLQEQGTKTVRQNLEPLFEQYINNLRRQLDSIVGERGRLDSELRGMQDLVEDFKNKYEDEINKRTAAENEFVTLKKDVDAAYMNKVELQAKADTLTDEINFLRALYDAELSQMQTHISDTSVVLSMDNNRNLDLDSIIAEVKAQYEEIAQRSRAEAESWYQTKYEELQVTAGRHGDDLRNTKQEIAEINRMIQRLRSEIDHVKKQCANLQAAIADAEQRGEMALKDAKNKLEGLEDALQKAKQDLARLLKEYQELMNVKLALDVEIATYRKLLEGEECRLNGEGVGQVNISVVQSTVSSGYGGASGVGSGLGLGGGSSYSYGSGLGVGGGFSSSSGRAIGGGLSSVGGGSSTIKYTTTSSSSRKSYKH [N171K], for which the “effect of a mutation on the interaction” value is given as “with no effect”.

The variants in the next test derive from B2. The following applies: with k1h1_human KRT31, Q15323.
Target sequence in this assay (Q15323 whole entry): as the sequence (Q15323 whole entry) above
In the case of MASTSTTIRSHSSSRRGFSANSARLPGVSRSGFSSVSVSRSRGSGGLGGACGGAGFGSRSLYGLGGSKRISIGGGSCAISGGYGSRAGGSYGFGGAGSGFGFGGGAGIGFGLGGGAGLAGGFGGPGFPVCPPGGIQEVTVNQSLLTPLNLQIDPTIQRVRAEEREQIKTLKNKFASFIDKVRFLEQQNKVLETKWTLLQEQGTKTVRQNLEPLFEQYINNLRRQLDSIVGERGRLDSELRGMQDLVEDFKNKYEDEINKRTAAENEFVTLKKDVDAAYMNKVELQAKADTLTDEINFLRALYDAELSQMQTHISDTSVVLSMDNNRNLDLDSIIAEVKAQYEEIAQRSRAEAESWYQTKYEELQVTAGRHGDDLRNTKQEIAEINRMIQRLRSEIDHVKKQCANLQAAIADAEQRGEMALKDAKNKLEGLEDALQKAKQDLARLLKEYQELMNVKLALDVEIATYRKLLEGEECRLNGEGVGQVNISVVQSTVSSGYGGASGVGSGLGLGGGSSYSYGSGLGVGGGFSSSSGRAIGGGLSSVGGGSSTIKYTTTSSSSRKSYKH [N171K], the “effect of a mutation on the interaction” value is “with no effect”.

A further test covers variants of B2. Particulars: with tfp11_human TFIP11, Q9UBB9.
Sequence of tfp11_human TFIP11, Q9UBB9 (Q9UBB9 whole entry): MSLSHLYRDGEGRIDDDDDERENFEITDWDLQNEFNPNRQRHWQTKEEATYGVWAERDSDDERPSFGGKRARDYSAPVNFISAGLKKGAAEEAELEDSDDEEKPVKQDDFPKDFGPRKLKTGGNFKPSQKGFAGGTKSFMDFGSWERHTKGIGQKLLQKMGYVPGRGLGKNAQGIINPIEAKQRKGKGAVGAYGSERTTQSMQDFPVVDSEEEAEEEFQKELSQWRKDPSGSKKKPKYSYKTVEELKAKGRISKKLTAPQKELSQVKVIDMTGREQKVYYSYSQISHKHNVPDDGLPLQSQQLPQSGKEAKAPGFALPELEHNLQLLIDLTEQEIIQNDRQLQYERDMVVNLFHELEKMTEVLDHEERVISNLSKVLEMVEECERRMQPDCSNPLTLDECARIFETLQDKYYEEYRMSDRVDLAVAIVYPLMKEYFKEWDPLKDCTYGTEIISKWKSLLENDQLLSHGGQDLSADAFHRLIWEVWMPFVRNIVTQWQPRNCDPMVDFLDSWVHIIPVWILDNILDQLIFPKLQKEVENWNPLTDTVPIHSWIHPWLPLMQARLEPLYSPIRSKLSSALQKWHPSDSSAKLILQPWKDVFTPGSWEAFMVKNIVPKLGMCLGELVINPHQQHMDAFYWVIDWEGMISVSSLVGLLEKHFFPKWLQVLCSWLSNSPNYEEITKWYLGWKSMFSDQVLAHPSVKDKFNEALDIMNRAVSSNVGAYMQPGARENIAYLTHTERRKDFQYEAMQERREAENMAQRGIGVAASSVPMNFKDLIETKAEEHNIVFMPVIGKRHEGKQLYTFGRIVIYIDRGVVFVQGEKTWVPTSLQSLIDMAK
As to MASTSTTIRSHSSSRRGFSANSARLPGVSRSGFSSVSVSRSRGSGGLGGACGGAGFGSRSLYGLGGSKRISIGGGSCAISGGYGSRAGGSYGFGGAGSGFGFGGGAGIGFGLGGGAGLAGGFGGPGFPVCPPGGIQEVTVNQSLLTPLNLQIDPTIQRVRAEEREQIKTLKNKFASFIDKVRFLEQQNKVLETKWTLLQEQGTKTVRQNLEPLFEQYINNLRRQLDSIVGERGRLDSELRGMQDLVEDFKNKYEDEINKRTAAENEFVTLKKDVDAAYMNKVELQAKADTLTDEINFLRALYDAELSQMQTHISDTSVVLSMDNNRNLDLDSIIAEVKAQYEEIAQRSRAEAESWYQTKYEELQVTAGRHGDDLRNTKQEIAEINRMIQRLRSEIDHVKKQCANLQAAIADAEQRGEMALKDAKNKLEGLEDALQKAKQDLARLLKEYQELMNVKLALDVEIATYRKLLEGEECRLNGEGVGQVNISVVQSTVSSGYGGASGVGSGLGLGGGSSYSYGSGLGVGGGFSSSSGRAIGGGLSSVGGGSSTIKYTTTSSSSRKSYKH [N171K], the “effect of a mutation on the interaction” value is “with no effect”.

In the next test the parent is B2. Particulars: with goga2_human GOLGA2, Q08379.
Sequence of goga2_human GOLGA2, Q08379 (Q08379 whole entry): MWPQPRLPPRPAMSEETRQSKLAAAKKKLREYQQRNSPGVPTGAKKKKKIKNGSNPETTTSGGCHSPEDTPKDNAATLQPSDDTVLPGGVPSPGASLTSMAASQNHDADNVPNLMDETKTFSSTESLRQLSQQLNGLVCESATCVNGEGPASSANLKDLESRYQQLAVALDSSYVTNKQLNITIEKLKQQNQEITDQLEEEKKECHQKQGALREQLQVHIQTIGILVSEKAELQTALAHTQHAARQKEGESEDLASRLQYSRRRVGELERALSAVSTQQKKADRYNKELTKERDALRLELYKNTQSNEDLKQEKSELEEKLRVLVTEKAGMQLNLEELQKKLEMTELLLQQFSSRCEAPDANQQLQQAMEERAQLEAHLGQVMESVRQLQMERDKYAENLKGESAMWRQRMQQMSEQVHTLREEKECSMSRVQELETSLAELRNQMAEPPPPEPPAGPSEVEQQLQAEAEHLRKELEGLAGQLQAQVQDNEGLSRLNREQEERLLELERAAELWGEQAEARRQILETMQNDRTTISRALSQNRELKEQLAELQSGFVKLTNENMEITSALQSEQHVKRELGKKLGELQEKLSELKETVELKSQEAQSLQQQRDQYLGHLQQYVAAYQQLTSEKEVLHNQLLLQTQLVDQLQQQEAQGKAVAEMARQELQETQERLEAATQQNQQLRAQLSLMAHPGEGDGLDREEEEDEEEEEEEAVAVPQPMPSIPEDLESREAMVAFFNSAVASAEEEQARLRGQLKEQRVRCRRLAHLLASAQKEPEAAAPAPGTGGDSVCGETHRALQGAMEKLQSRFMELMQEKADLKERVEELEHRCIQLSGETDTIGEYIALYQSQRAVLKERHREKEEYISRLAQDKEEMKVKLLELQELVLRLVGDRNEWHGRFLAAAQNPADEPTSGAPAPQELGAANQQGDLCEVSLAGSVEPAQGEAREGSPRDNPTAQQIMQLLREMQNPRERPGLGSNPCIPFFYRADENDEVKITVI
As to MASTSTTIRSHSSSRRGFSANSARLPGVSRSGFSSVSVSRSRGSGGLGGACGGAGFGSRSLYGLGGSKRISIGGGSCAISGGYGSRAGGSYGFGGAGSGFGFGGGAGIGFGLGGGAGLAGGFGGPGFPVCPPGGIQEVTVNQSLLTPLNLQIDPTIQRVRAEEREQIKTLKNKFASFIDKVRFLEQQNKVLETKWTLLQEQGTKTVRQNLEPLFEQYINNLRRQLDSIVGERGRLDSELRGMQDLVEDFKNKYEDEINKRTAAENEFVTLKKDVDAAYMNKVELQAKADTLTDEINFLRALYDAELSQMQTHISDTSVVLSMDNNRNLDLDSIIAEVKAQYEEIAQRSRAEAESWYQTKYEELQVTAGRHGDDLRNTKQEIAEINRMIQRLRSEIDHVKKQCANLQAAIADAEQRGEMALKDAKNKLEGLEDALQKAKQDLARLLKEYQELMNVKLALDVEIATYRKLLEGEECRLNGEGVGQVNISVVQSTVSSGYGGASGVGSGLGLGGGSSYSYGSGLGVGGGFSSSSGRAIGGGLSSVGGGSSTIKYTTTSSSSRKSYKH [N171K], the “effect of a mutation on the interaction” value is reported as “disrupting interaction strength”.
